Experiments:
[1] = target: T1, HLA-A*0201/β2-microglobulin/NY-ESO peptide complex (human, biotinylated with E. coli biotin ligase at the added recognition sequence (biotinylated form used in the ELISA)); experiment: SPR (Biacore T200), scFv captured by anti-His antibody, HLA/NY-ESO as analyte, single cycle kinetics
T1 construct: also called HLA/NY-ESO; HLA-A2/NY-ESO
Procedure: With the use of Biacore T200, the anti-HLA/NY-ESO scFv was captured as a ligand to the immobilized anti-His antibody, and the antigen was assayed as an analyte. As the antigen, HLA/NY-ESO prepared in 1)-1 was used. The anti-His antibody (His Capture kit, Cytiva) was immobilized on Sensor Chip CM5 (Cytiva) in accordance with the instructions of the kit. The anti-HLA/NY-ESO scFv constructs diluted to 0.5 μg/ml in HBS-EP+(Cytiva) to be evaluated were brought into contact therewith at 10 μl/min for 60 seconds for immobilization. Thereafter, the samples were added to the HLA/NY-ESO analytes diluted to various levels with HBS-EP+ at a flow rate of 30 μl/min for 120 seconds and dissociation was assayed for 600 seconds.

[2] = target: HLA-A2/NY-ESO peptide complex presented on cells (human); experiment: cell-based or functional assay
[3] = target: HLA-A2/NY-ESO peptide complex presented on cells (human); experiment: cell-based or functional assay; remark: listed apart in the source
[4] = target: T1, HLA-A*0201/β2-microglobulin/NY-ESO …; experiment: SPR (Biacore T200), bispecific captured by anti-human IgG (Fc) antibody, HLA/NY-ESO as analyte, single cycle kinetics
Procedure: With the use of Biacore T200, various Fc-conjugated anti-HLA/NY-ESO-anti-CD3 bispecific molecules were captured as ligands to the immobilized anti-human IgG (Fc) antibody, and the antigen was assayed as an analyte. […] The anti-human IgG (Fc) antibody (Human antibody Capture kit, GE Healthcare) was immobilized on Sensor Chip CM5 (GE Healthcare) in accordance with the instructions of the kit. The Fc-conjugated anti-HLA/NY-ESO-anti-CD3 bispecific molecules diluted to 0.5 g/ml in HBS-EP+(GE Healthcare) to be evaluated were brought into contact therewith at 10 μl/min for 60 seconds for immobilization. Thereafter, the samples were added to the HLA/NY-ESO analytes diluted to various levels with HBS-EP+ at a flow rate of 30 μl/min for 120 seconds and dissociation was assayed for 600 seconds.

1F = target: T2, 1F (human); experiment: flow cytometry, CD3e knockout T2 cells pulsed with 50 µM peptide, antibody at 100 nM, PE anti-human IgG; gMFI standardized to the HLA/peptide amount; DMSO-only cells 1.15
T2 construct: cell surface; also called HLA-A2 / point-mutant NY-ESO peptide 1F complex on CD3e knockout T2 cells
Procedure: (§1) The cells were washed 2 times in PBS containing 5% FBS, PE conjugated F(ab′)2 Fragment Anti-Human IgG (Jackson Immuno Research Laboratories) diluted with PBS containing 5% FBS was added at 25 μl/well, and the resultant was allowed to stand at 4° C. for 30 minutes. The cells were washed 2 times in PBS containing 5% FBS, immobilized with Mildform 10 N (FUJIFILM Wako Pure Chemical Corporation) overnight, and resuspended in PBS containing 5% FBS. […] The cells were washed 2 times in PBS containing 5% FBS, immobilized with Mildform 10 N (FUJIFILM Wako Pure Chemical Corporation) overnight, and resuspended in PBS containing 5% FBS. The cell suspensions were subjected to detection using a flow cytometer (CantoII, Becton Dickinson). […] The standardized gMFI indicating the binding affinity of each Fc-conjugated anti-HLA-A2/NY-ESO-anti-CD3 bispecific molecule standardized with the amount of the HLA/peptide complex on the CD3e knockout T2 cells was determined in accordance with the following equation.

gp100 [5] = target: T3, gp100 (human); experiment: as above
T3 construct: cell surface; unrelated control peptide; also called HLA-A2 / gp100 peptide complex on CD3e knockout T2 cells
Procedure: as §1

[6] = target: T4, HLA-A2/NY-ESO peptide complex presented on cells (human); experiment: as above
T4 construct: whole, on cells; also called HLA/NY-ESO; T2 cells supplemented with the NY-ESO peptide
Procedure: as §1

gp100 [7] = target: T3, gp100; experiment: flow cytometry, CD3e knockout T2 cells pulsed with 50 µM peptide, antibody at 100 nM, PE anti-human IgG; gMFI standardized to the HLA/peptide amount; DMSO-only cells 1.19
Source text: (§2) The cells were washed 2 times in PBS containing 5% FBS, immobilized with Mildform 10 N (FUJIFILM Wako Pure Chemical Corporation) overnight, and resuspended in PBS containing 5% FBS. The cell suspensions were subjected to detection using a flow cytometer (CantoII, Becton Dickinson). […] The standardized gMFI indicating the binding affinity of each Fc-conjugated anti-HLA-A2/NY-ESO-anti-CD3 bispecific molecule standardized with the amount of the HLA/peptide complex on the CD3e knockout T2 cells was determined in accordance with the following equation.
(§3) The standardized gMFI indicating the binding affinity of each Fc-conjugated anti-HLA-A2/NY-ESO-anti-CD3 bispecific molecule standardized with the amount of the HLA/peptide complex on the CD3e knockout T2 cells was determined in accordance with the following equation.

[8] = target: T4, HLA-A2/NY-ESO peptide complex presented …; experiment: as above
Source text: as §2, §3

[9] = target: T5, HLA-A2 / homologous peptide DOLPP1 complex on T2 cells (human); experiment: as above
T5 construct: whole, on cells; also called T2 cells supplemented with homologous peptide DOLPP1
Source text: as §2, §3

[10] = target: T6, HLA-A2 / homologous peptide IL20RB complex on T2 cells (human); experiment: as above
T6 construct: whole, on cells; also called T2 cells supplemented with homologous peptide IL20RB
Source text: as §2, §3

[11] = target: T7, HLA-A2 / homologous peptide PRKD2 complex on T2 cells (human); experiment: as above
T7 construct: whole, on cells; also called T2 cells supplemented with homologous peptide PRKD2
Source text: as §2, §3

[12] = target: T8, HLA-A2 / homologous peptide CD163 complex on T2 cells (human); experiment: as above
T8 construct: whole, on cells; also called T2 cells supplemented with homologous peptide CD163
Source text: as §2, §3

[13] = target: T9, HLA-A2 / homologous peptide P2RY8 complex on T2 cells (human); experiment: as above
T9 construct: whole, on cells; also called T2 cells supplemented with homologous peptide P2RY8
Source text: as §2, §3

B1: NYC-0008 (scFv)
scFv: GEVQLVESGGGVVQPGGSLRLSCEASGFIFDDYAMHWVRQAPGKGLEWVSLISGDGDIIYYADSVKGRFTISRDNSKNSLYLQMNSLIIEDTALYYCAKDWVFGVVMTHYWYFGLDVWGQGTTVTVSSGGGGSGGGGSGGGGSDIQMTQSPSSLSASEGDRVTITCRASQSISTYLNWYQQKPGKAPKLLIYGASSLQSGVPSRFSGSGSGTDFTLTISSLQPEDFATYYCQQSYSTPPITFGQGTKVEIKGAAAGAGGDYKDDDDKGAAAHHHHHH
notes: Captured by anti-His antibody in SPR; also called scFv of mAb28105P
[1]
  Kd: 7.9 nM

B2: NYZ-1010 (bispecific antibody, human IgG1, lambda, L234A L235A)
chain 1: not shown
chain 2: not shown
light: NFMLTQPSSVSGVPGQRVTISCTGNTGNIGSNYVNWYQQLPGTAPKLLIYRDDKRPSGVPDRFSGSKSGTSASLAITGFQAEDEADYYCQSYSSGFIFGGGTKLTVLGQPKAAPSVTLFPPSSEELQANKATLVCLISDFYPGAVTVAWKADSSPVKAGVETTTPSKQSNNKYAASSYLSLTPEQWKSHRSYSCQVTHEGSTVEKTVAPTECS
[2]
  EC50 of cytotoxicity on U266B1 cells (51Cr release, human PBMC effectors): 0.96 nM
[3]
  EC50 of cytotoxicity on NCI-H1703 cells (51Cr release, human PBMC effectors): 2.56 nM
[4]
  Kd: 1.9 nM
1F
  standardized gMFI: 0.86
gp100 [5]
  standardized gMFI: 0.53
[6]
  standardized gMFI: 43.3
gp100 [7]
  standardized gMFI: 0.54
[8]
  standardized gMFI: 44.4
[9]
  standardized gMFI: 0.7
[10]
  standardized gMFI: 0.88
[11]
  standardized gMFI: 0.54
[12]
  standardized gMFI: 0.67
[13]
  standardized gMFI: 0.95
